Literature values in publication PMC11190312.

What was measured:
[1] = biological target: nucleoprotein (SARS-CoV-1) (UniProt P59595); conditions: cited from earlier work
[2] = biological target: nucleoprotein (SARS-CoV-2) (UniProt P0DTC9); conditions: cited from earlier work

For MASP-2 (from UniProt O00187), the Kd [1] is listed as 268 nM and the Kd [2] is listed as 514 nM.
